Laboratory results reported in the supplement of paper PMC9732359.
± gives the uncertainty stated by the source.

Experiment: protein stability index of a GFP-peptide fusion (yeast GPS) (PSI 1-4); higher = more stable; sorted into four equal gates, so the index is relative within each strain
Procedure, shortened: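 Tiled 17-residue peptides from yeast proteins were fused downstream of GFP on a plasmid that also expresses Cherry, and the pooled library was carried in yeast. Mid-log cultures grown in leucine-free medium were sorted into four equal gates by GFP/Cherry fluorescence ratio. Plasmids from each gate were PCR-amplified and Illumina-sequenced, and reads were assigned to strains by barcodes. Each peptide's protein stability index is the sum, over gates, of the gate's read frequency multiplied by its gate number.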

Row | Sequence | protein stability index (doa10∆) | protein stability index (pdr5∆) | protein stability index (san1∆) | protein stability index (ubr1∆)
1 | DITDGKDYHTLANNVES [RPS18A] | 3.21 ± 0.052 | 3.31 ± 0.048 | 3.22 ± 0.042 | 3.22 ± 0.04
2 | IPIAIVLKACGILSDLE [RET1] | 1.4 ± 0.057 | 1.43 ± 0.061 | 1.36 ± 0.096 | 2.02 ± 0.053
3 | TNKGPLAQIWLASNMSN [MCD1] | 2.33 ± 0.096 | 1.26 ± 0.054 | 1.26 ± 0.2 | 1.17 ± 0.056
4 | KQTADWLAEKFQKETNM [PRP28] | 2.57 ± 0.2 | 3.12 ± 0.14 | 3.43 ± 0.091 | 3.16 ± 0.21
5 | AQGDPNLEPLIAKLVAV [NUT1] |  | 1.87 ± 0.13 | 3.08 ± 0.19 | 1.07 ± 0.088
6 | PEKKEMIQEVIVEEDLE [FAS2] | 3.14 ± 0.077 | 3.31 ± 0.089 | 3.35 ± 0.045 | 3.36 ± 0.062
7 | NVRMDTMANILYYPQKP [RPB2] | 2.83 ± 0.11 | 3.23 ± 0.24 | 3.12 ± 0.1 | 2.99 ± 0.1
8 | KTAKEVAGAIRAGIIIA [RPS2] | 2.49 ± 0.14 | 3.16 ± 0.17 | 2.69 ± 0.24 | 3.07 ± 0.1
9 | NLENMSIQDTSTVAKNV [YCG1] | 3.01 ± 0.052 | 3.12 ± 0.051 | 3.1 ± 0.04 | 3.21 ± 0.041
10 | VTVDADIDDILKKGEQK [ISW2] | 2.85 ± 0.12 | 2.76 ± 0.07 | 2.35 ± 0.084 | 2.72 ± 0.043
11 | KLRRECSNPTCGAGVFL [RPS31] | 1.78 ± 0.048 | 2.44 ± 0.065 | 2.11 ± 0.07 | 1.86 ± 0.038
12 | KLREPVARFLHFNGIRR [ITC1] | 2.04 ± 0.088 | 2.05 ± 0.063 | 2.5 ± 0.083 | 2.09 ± 0.046
13 | ENLVVADLESFANNHFL [COR1] | 1.7 ± 0.12 | 2.24 ± 0.18 | 1.97 ± 0.14 | 1.89 ± 0.12
14 | GFSPTSPTYSPTSPAYS [RPO21] | 2.81 ± 0.052 | 2.74 ± 0.043 | 2.94 ± 0.051 | 2.39 ± 0.038
15 | FVKFLSKKGSLENNIRE [RPL10] | 3.32 ± 0.18 | 3.32 ± 0.16 | 3.11 ± 0.076 | 3.3 ± 0.057
16 | IKETKENDEEFYKNKYS [RPN2] | 1.34 ± 0.13 | 1.5 ± 0.19 | 1.31 ± 0.26 | 1.51 ± 0.21
17 | LNEMLNTRKNMSISLES [DIS3] | 2.66 ± 0.053 | 2.91 ± 0.066 | 2.63 ± 0.069 | 2.95 ± 0.051
18 | FDDILKVGAEMMMQQQL [MED2] | 2.66 ± 0.11 | 2.44 ± 0.093 | 2.53 ± 0.13 | 2.46 ± 0.086
19 | GITHFRAGMTHEDEKLI [PRP8] | 2.62 ± 0.079 | 2.47 ± 0.065 | 3.1 ± 0.059 | 3.14 ± 0.044
20 | VPPPPVRPSISFNESQR [RPO21] | 2.47 ± 0.037 | 2.78 ± 0.036 | 2.62 ± 0.039 | 2.45 ± 0.034
21 | RSKFLSTVAKFLARVIK [IRR1] | 3.04 ± 0.07 | 2 ± 0.07 | 2.24 ± 0.11 | 2.2 ± 0.047
22 | EEDISDLWNNFGNIMDN [RRP6] | 3.13 ± 0.078 | 2.98 ± 0.071 | 3.02 ± 0.052 | 3.02 ± 0.1
23 | NTSFSFTKPPANETDKR [YOR098C/NUP1] | 3.08 ± 0.075 | 3.11 ± 0.049 | 3.07 ± 0.046 | 3.15 ± 0.045
24 | LSAEYLVILKPDLNIDR [SIN4] | 2.97 ± 0.063 | 3.1 ± 0.1 | 2.97 ± 0.058 | 2.94 ± 0.045
25 | DDPTQLVSRGGCGNTQP [RPO21] | 3.18 ± 0.12 | 2.55 ± 0.19 | 2.97 ± 0.11 | 3.04 ± 0.088
26 | VRELGILCIFEGEKCHP [SEC65] | 2.01 ± 0.052 | 2.43 ± 0.064 | 2.67 ± 0.051 | 2.45 ± 0.042
